# Earlier results as cited in article PMC7343451.
# Target: SARS-CoV-2 spike RBD (Severe acute respiratory syndrome coronavirus 2) (UniProt P0DTC2)
substance,measurement,value
hACE2 peptide 21-43 (from UniProt Q9BYF1),Kd,47 nM
